The labels stand for the following.
B1: CPEB3 Ribozyme (parent)
chain: GGGGGCCACAGCAGAAGCGUUCACGUCGCGGCCCCUGUCAGAUUCUGGUGAAUCUGCGAAUUCUGCUGU

Variants of B1 are the subject of the series. As to the kind of experiment: self-cleavage, relative activity (ratio to wild type); higher = more cleavage; co-transcriptional.
Regarding C7U, the self-cleavage came out at 0.968.

On to C7G, for which the self-cleavage worked out at 0.497.

On to C7U A40C, for which the self-cleavage stood at 0.282.

For the variant C7U A40G, the self-cleavage was 0.934.

As for C7U A40U, the self-cleavage came out at 0.683.

For C7G U44A, the self-cleavage worked out at 0.28.

Take C7G U44C: the self-cleavage worked out at 0.282.

For C7G U44G, the self-cleavage was found to be 0.252.

As to C7U U38G, the self-cleavage amounted to 0.193.

C7U U38C: the self-cleavage came out at 0.819.

Consider C7U U38A, for which the self-cleavage came to 0.774.

Regarding C7G C33G, the self-cleavage is 0.146.

On to C7G C33A, for which the self-cleavage was found to be 0.147.

Consider C7G C63A, for which the self-cleavage stood at 0.237.

As to C7G C63G, the self-cleavage turned out to be 0.113.

Regarding C7G C63U, the self-cleavage turned out to be 0.316.

In the case of C7G G47A, the self-cleavage came out at 0.452.

Take C7G C22U: the self-cleavage is 0.128.

Consider C7U U53A, for which the self-cleavage turned out to be 0.861.

As to C7U U53G, the self-cleavage amounted to 0.949.

As to C7G U43G, the self-cleavage was determined as 0.29.

In the case of C7G U43A, the self-cleavage stood at 0.274.

As to C7G C32U, the self-cleavage stood at 0.177.

For the variant C7G C32G, the self-cleavage amounted to 0.106.

Regarding C7A U61G, the self-cleavage was 0.378.

For the variant C7A U61C, the self-cleavage is 0.232.

With A8C A15C, the self-cleavage was 0.726.

Turning to A8C A15U, the self-cleavage was found to be 0.873.

Turning to C7U U43A, the self-cleavage was 0.828.

On to C7U U43C, for which the self-cleavage was found to be 0.967.

With C7A G30A, the self-cleavage amounted to 0.826.

Regarding C7A G30U, the self-cleavage stood at 0.9.

Turning to C7A G30C, the self-cleavage stood at 0.661.

Turning to C7A U67C, the self-cleavage came out at 0.807.

In the case of C7U C39A, the self-cleavage was 0.686.

In the case of C7U C39G, the self-cleavage came out at 0.911.

With C7U C39U, the self-cleavage came to 0.803.

Consider C7U A42C, for which the self-cleavage was determined as 0.901.

As to C7U A42U, the self-cleavage came out at 0.899.

Consider C7U C57U, for which the self-cleavage was 0.305.

As to C7U C57A, the self-cleavage stood at 0.35.

In the case of A8C, the self-cleavage stood at 0.999.

Take C7G A13G: the self-cleavage amounted to 0.238.

C7G A13U: the self-cleavage was determined as 0.122.

As for C7U G17U, the self-cleavage was 0.243.

With C7U G17A, the self-cleavage came to 0.175.

With C7U G17C, the self-cleavage turned out to be 0.122.

Regarding C7U A15U, the self-cleavage was 0.534.

C7U A15C: the self-cleavage was 0.693.

Consider C7U A15G, for which the self-cleavage amounted to 0.927.

Regarding A8C A40G, the self-cleavage worked out at 0.958.

For A8C A40U, the self-cleavage came to 0.868.

As to C7U C12A, the self-cleavage is 0.555.

In the case of C7U C54U, the self-cleavage stood at 0.967.

Consider C7U C54A, for which the self-cleavage was 0.831.

Turning to C7U C18U, the self-cleavage was determined as 0.702.

Regarding C7U C18A, the self-cleavage came out at 0.165.

Regarding C7A G50U, the self-cleavage was 0.54.

C7A G50A: the self-cleavage is 0.617.

Consider C7U A51C, for which the self-cleavage stood at 0.966.

In the case of C7U A51U, the self-cleavage amounted to 0.976.

For the variant C7U A51G, the self-cleavage is 0.984.

For the variant C7G C54U, the self-cleavage was 0.507.

Regarding C7G C54G, the self-cleavage is 0.17.

For C7G C54A, the self-cleavage came out at 0.138.

Take C7G G25U: the self-cleavage turned out to be 0.0759.

As to C7G G25C, the self-cleavage turned out to be 0.0905.

With C7G C34U, the self-cleavage amounted to 0.325.

C7G C34G: the self-cleavage was found to be 0.0956.

C7G C34A: the self-cleavage is 0.109.

Turning to C7G G50C, the self-cleavage worked out at 0.294.

Regarding C7G G50U, the self-cleavage is 0.465.

C7G G50A: the self-cleavage is 0.456.

Turning to C7G C45A, the self-cleavage is 0.378.

Turning to C7G C45G, the self-cleavage turned out to be 0.295.

As to C7G C45U, the self-cleavage stood at 0.425.

On to A8C A52C, for which the self-cleavage came to 0.941.

Regarding C7U C34A, the self-cleavage was determined as 0.521.

For C7U G31C, the self-cleavage stood at 0.222.

As to C7U G31U, the self-cleavage turned out to be 0.365.

In the case of C7U G56U, the self-cleavage turned out to be 0.849.

Regarding C7U G56C, the self-cleavage came to 0.618.

Take C7U G25A: the self-cleavage worked out at 0.144.

In the case of C7U G25C, the self-cleavage was found to be 0.0703.

Consider C7U G14U, for which the self-cleavage stood at 0.503.

C7U G14A: the self-cleavage came to 0.509.

Take C7U C22A: the self-cleavage was found to be 0.103.

Consider C7U C22G, for which the self-cleavage worked out at 0.117.

For the variant C7G U64C, the self-cleavage stood at 0.17.

For C7G U64A, the self-cleavage worked out at 0.279.

For C7G U64G, the self-cleavage turned out to be 0.232.

With C7U U21A, the self-cleavage was found to be 0.967.

Consider C7U U21G, for which the self-cleavage was 0.34.

C7G C18G: the self-cleavage worked out at 0.116.

For the variant C7G C18U, the self-cleavage is 0.107.

Take C7G U62G: the self-cleavage is 0.244.

Consider C7G U62C, for which the self-cleavage is 0.285.

Regarding C7A G17U, the self-cleavage stood at 0.126.

With C7A G17C, the self-cleavage was 0.14.

Turning to C7G C57U, the self-cleavage was found to be 0.158.

Turning to C7G C57G, the self-cleavage amounted to 0.189.

Regarding C7U A59U, the self-cleavage worked out at 0.554.

In the case of C7U A59G, the self-cleavage came out at 0.93.

On to C7U A59C, for which the self-cleavage was found to be 0.403.

For A8C A42U, the self-cleavage amounted to 0.918.

As to A8C A42G, the self-cleavage was 0.939.

As for C7U C35U, the self-cleavage is 0.947.

Take C7U U44C: the self-cleavage amounted to 0.829.

Turning to C7G A59G, the self-cleavage worked out at 0.307.

On to C7U G47C, for which the self-cleavage was 0.917.

In the case of C7U G47A, the self-cleavage is 0.954.

C7U C27U: the self-cleavage came out at 0.247.

C7U C27G: the self-cleavage is 0.159.

In the case of C7U C27A, the self-cleavage came to 0.289.

On to C7U C24A, for which the self-cleavage is 0.499.

As for C7U G58C, the self-cleavage came out at 0.873.

Consider C7U G58A, for which the self-cleavage was found to be 0.928.

On to C7G U20C, for which the self-cleavage was determined as 0.143.

On to C7G U20A, for which the self-cleavage was 0.163.

Turning to C7G U20G, the self-cleavage is 0.

For the variant C7U A60U, the self-cleavage was found to be 0.244.

Take C7U A60G: the self-cleavage turned out to be 0.789.

C7G A23C: the self-cleavage was 0.319.

As to C7A U36G, the self-cleavage was found to be 0.205.

Regarding C7A U36C, the self-cleavage amounted to 0.223.

As to C7U A23C, the self-cleavage was 0.87.

On to C7U A23G, for which the self-cleavage was determined as 0.909.

Turning to C7U A23U, the self-cleavage turned out to be 0.955.

As to C7A U46G, the self-cleavage stood at 0.654.

As to C7A U46C, the self-cleavage was 0.587.

Consider C7G U61A, for which the self-cleavage worked out at 0.159.

On to C7G U61G, for which the self-cleavage is 0.172.

With C7G U61C, the self-cleavage was determined as 0.175.

For C7G G56A, the self-cleavage was found to be 0.333.

Regarding C7G G56C, the self-cleavage is 0.211.

As to C7G U69C, the self-cleavage came to 0.861.

In the case of C7G U69G, the self-cleavage came out at 0.779.

In the case of C7G U46C, the self-cleavage came to 0.38.

In the case of C7G U46A, the self-cleavage was 0.453.

With C7G A15C, the self-cleavage was 0.0463.

In the case of C7G A15G, the self-cleavage stood at 0.248.

Consider C7G A42G, for which the self-cleavage worked out at 0.306.

For the variant C7G A42C, the self-cleavage came to 0.198.

Take C7A G68U: the self-cleavage was found to be 0.937.

With C7A G68A, the self-cleavage was 0.984.

On to C7A U69A, for which the self-cleavage was found to be 0.875.

Turning to C7A U69G, the self-cleavage was found to be 0.897.

For the variant C7G G28U, the self-cleavage came to 0.0797.

As to C7G U21C, the self-cleavage stood at 0.173.

Turning to C7U G65U, the self-cleavage was 0.612.

For the variant C7U G65C, the self-cleavage was 0.604.

As to C7U G65A, the self-cleavage came out at 0.781.

With C7G A52C, the self-cleavage came out at 0.42.

Turning to C7G A52U, the self-cleavage was 0.301.

Regarding C7G G19A, the self-cleavage amounted to 0.0606.

With C7G G19U, the self-cleavage is 0.0728.

As for C7A G28U, the self-cleavage worked out at 0.128.

Turning to C7A G28A, the self-cleavage is 0.128.

As for C7A G28C, the self-cleavage was 0.11.

For C7A U43C, the self-cleavage amounted to 0.388.

Turning to C7G G48A, the self-cleavage was 0.457.

Consider C7G G48U, for which the self-cleavage was determined as 0.548.

C7A U49C: the self-cleavage worked out at 0.601.

As to C7A U49A, the self-cleavage was found to be 0.601.

With C7A U49G, the self-cleavage was determined as 0.409.

C7G C39A: the self-cleavage turned out to be 0.141.

Take C7G C39U: the self-cleavage was 0.326.

The record behind these values is the RNAGym collection of RNA variant scans (doi:10.7554/elife.80360).
